In experiment [1] the target is biotin-ahx-ahx-EPQpYEEIPIYL
Kind of experiment: BLI. Background: In BLI a coated tip is dipped into the sample, and binding shifts an interference pattern.

For experiment [2], the target named is fluorescein-ahx-ahx-EPQpYEEIPIYL
In words: fluorescence polarisation.

The target in experiment [3] is fluorescein-ahx-ahx-GGpYGG. In words: fluorescence polarisation.
Experiment [4] deals with Fyn SH2 variant V24 (T3S/T4S/S6A/K8L), His-tag protein (human). In words: ELISA. (ELISA stands for enzyme-linked immunosorbent assay.)
Experiment [5] has as its target Fyn SH2 variant V10 (T4V/K8L), His-tag protein (human). Kind of experiment: ELISA.
Experiment [6] addresses Fyn SH2 variant V13 (T3S/T4R/S6A/K8L), His-tag protein (human). Kind of experiment: ELISA.
For experiment [7], the target named is Fyn SH2 triple mutant superbinder (T4V/S6A/K8L), His-tag protein (human). Kind of experiment: ELISA.
In experiment [8] the target is 9 of the 22 variants that have the K8L mutation (His-tag proteins). Kind of experiment: ELISA.
For experiment [9], the target named is Fyn SH2 variant V3 (T3S/T4W/A5G), His-tag protein (human). In words: ELISA.
Experiment [10] addresses Fyn SH2 variant V17 (T4N/A5S/K8L), His-tag protein (human). Kind of experiment: ELISA.

Square brackets hold non-standard residues; d marks the D form. Ends that are not written are not given here. * marks the point of attachment. Biotin = O=C1N[C@H]2[C@H](CS[C@H]2CCCCC(=O)*)N1; pY = N[C@@H](Cc1ccc(OP(=O)(O)O)cc1)C(=O)O; Ahx = NCCCCCC(=O)O

As for “Fyn SH2 variant V3 (T3S/T4W/A5G), His-tag protein (designed binder)”, the Kd came out at 55 nM in experiment [1], 38 nM in [2] and 1630 nM in [3]. This molecule also had a koff in [1] of 0.000463 s⁻¹.
In the case of “Fyn SH2 variant V24 (T3S/T4S/S6A/K8L), His-tag protein (designed binder)”, the Kd in experiment [2] came out at 23 nM; in experiment [3], 2570 nM.
For “Fyn SH2 variant V10 (T4V/K8L), His-tag protein (designed binder)” the same measures were 32 nM and 2700 nM.
Turning to “Fyn SH2 triple mutant superbinder (T4V/S6A/K8L), His-tag protein (designed binder)”, in [1], the Kd amounted to 55 nM, the koff amounted to 0.000888 s⁻¹ and the kon worked out at 16300 M⁻¹ s⁻¹. The molecule further registered a Kd in [2] of 20 nM. Besides, in [3], the Kd is 680 nM.
In experiment [1], “wild type human Fyn SH2 domain (Cys-less), His-tag protein (from UniProt P06241 149-246) (domain or fragment)” gave a Kd of 154 nM, a koff of 0.01 s⁻¹ and a kon of 64800 M⁻¹ s⁻¹. The same molecule gave a dissociation constant Kd in experiment [2] of 327 nM.
For the molecule “Fyn SH2 variant V17 (T4N/A5S/K8L), His-tag protein (designed binder)”, in experiment [2], the Kd was under 40 nM, the fold affinity increase over the wild type Fyn SH2 domain is 4 fold and the fold weaker than the triple mutant came out at 4 fold.
In the case of “Fyn SH2 variant V13 (T3S/T4R/S6A/K8L), His-tag protein (designed binder)”, the Kd was 12 nM in [2] and 620 nM in [3].

B1: biotin-ahx-ahx-EPQpYEEIPIYL (peptide)
peptide: {Biotin-Ahx-Ahx}-EPQ[pY]EEIPIYL
On to B1, for which the EC50 was under 200 nM in experiment [4]; 175 nM in [5]; under 200 nM in experiment [6]; 21 nM in experiment [7]; 21 to 500 nM in [8]; 15 nM in [9]. The EC50 in experiment [10] was under 200 nM.

The Kd is a measure of binding affinity in units of concentration. Read a high Kd as lower affinity. Broadly, the koff is the first-order rate constant of dissociation. Higher therefore signals fast dissociation. For orientation: kon means the second-order rate constant of association. A lower kon goes with slower complex formation. Broadly, the EC50 is the midpoint of the concentration-response curve. High values mean a need for much substance, low ones an effect from little substance.

These data come from paper doi:10.1101/2020.10.30.361790.
